The assay deals with fibronectin (from human plasma) (human) (UniProt P02751). Briefly: ELISA; as the adhesion assay on coated substrate, over a range of protein concentrations; KD estimated with the xy analysis subprogram of GraphPad Prism v. 5.
Chain of UniProt P02751 (P02751 other isoform, or with tags, fused parts or gaps, chain 1 of 2): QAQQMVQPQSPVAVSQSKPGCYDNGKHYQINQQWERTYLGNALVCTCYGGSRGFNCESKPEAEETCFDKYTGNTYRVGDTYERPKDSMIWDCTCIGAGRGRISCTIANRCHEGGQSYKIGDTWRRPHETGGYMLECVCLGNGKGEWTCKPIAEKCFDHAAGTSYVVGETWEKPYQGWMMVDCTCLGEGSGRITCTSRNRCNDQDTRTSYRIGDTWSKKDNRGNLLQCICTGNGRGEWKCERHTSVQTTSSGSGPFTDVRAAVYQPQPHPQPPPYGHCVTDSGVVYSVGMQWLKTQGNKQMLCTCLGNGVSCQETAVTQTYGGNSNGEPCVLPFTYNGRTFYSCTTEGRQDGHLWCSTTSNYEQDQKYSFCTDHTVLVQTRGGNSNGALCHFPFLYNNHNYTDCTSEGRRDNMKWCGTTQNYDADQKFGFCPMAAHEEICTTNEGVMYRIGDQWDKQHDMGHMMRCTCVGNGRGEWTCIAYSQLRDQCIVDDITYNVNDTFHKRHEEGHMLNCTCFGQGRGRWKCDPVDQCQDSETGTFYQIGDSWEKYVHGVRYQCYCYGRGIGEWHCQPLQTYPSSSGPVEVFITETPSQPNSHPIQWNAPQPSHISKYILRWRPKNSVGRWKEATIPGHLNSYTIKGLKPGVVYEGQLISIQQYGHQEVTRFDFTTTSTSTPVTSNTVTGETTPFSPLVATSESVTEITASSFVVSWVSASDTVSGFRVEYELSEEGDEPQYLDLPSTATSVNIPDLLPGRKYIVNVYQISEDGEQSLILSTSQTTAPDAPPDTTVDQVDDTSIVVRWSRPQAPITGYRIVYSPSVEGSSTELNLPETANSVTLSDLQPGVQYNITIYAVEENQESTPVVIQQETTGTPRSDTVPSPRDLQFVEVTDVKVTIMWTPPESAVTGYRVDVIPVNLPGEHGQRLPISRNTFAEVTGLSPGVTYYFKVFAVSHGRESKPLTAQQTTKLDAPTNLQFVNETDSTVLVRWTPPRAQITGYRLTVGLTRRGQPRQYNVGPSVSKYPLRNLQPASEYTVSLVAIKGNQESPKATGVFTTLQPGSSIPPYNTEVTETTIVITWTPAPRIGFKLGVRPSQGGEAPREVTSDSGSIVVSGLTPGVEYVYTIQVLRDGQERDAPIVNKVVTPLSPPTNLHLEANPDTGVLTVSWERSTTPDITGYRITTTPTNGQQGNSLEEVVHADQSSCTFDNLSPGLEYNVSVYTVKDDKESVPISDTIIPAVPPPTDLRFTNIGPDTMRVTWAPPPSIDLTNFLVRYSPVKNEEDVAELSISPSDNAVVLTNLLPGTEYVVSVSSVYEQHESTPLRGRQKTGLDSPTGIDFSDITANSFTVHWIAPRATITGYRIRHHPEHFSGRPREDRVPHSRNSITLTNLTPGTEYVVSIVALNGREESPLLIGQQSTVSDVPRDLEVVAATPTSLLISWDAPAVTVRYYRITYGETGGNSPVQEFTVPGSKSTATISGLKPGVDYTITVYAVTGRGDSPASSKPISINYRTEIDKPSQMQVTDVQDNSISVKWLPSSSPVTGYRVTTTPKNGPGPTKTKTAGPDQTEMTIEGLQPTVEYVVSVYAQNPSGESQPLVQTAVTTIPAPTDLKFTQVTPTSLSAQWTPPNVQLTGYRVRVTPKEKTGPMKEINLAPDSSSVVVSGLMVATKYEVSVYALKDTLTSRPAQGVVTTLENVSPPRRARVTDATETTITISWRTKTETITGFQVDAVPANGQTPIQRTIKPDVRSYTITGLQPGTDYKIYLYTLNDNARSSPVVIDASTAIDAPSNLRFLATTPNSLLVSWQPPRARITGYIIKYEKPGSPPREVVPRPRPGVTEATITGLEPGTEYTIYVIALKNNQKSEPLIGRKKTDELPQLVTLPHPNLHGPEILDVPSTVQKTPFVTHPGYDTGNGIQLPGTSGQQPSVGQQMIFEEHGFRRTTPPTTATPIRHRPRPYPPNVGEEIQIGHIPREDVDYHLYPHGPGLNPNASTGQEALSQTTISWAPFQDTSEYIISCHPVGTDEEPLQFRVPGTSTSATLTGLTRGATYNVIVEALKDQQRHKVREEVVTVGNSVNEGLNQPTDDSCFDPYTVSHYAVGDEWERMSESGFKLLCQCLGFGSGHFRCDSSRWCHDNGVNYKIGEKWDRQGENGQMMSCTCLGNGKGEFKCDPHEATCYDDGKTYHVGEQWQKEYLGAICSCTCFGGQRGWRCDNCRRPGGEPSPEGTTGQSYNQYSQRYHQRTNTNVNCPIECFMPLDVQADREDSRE
Chain of UniProt P02751 (P02751 other isoform, or with tags, fused parts or gaps, chain 2 of 2): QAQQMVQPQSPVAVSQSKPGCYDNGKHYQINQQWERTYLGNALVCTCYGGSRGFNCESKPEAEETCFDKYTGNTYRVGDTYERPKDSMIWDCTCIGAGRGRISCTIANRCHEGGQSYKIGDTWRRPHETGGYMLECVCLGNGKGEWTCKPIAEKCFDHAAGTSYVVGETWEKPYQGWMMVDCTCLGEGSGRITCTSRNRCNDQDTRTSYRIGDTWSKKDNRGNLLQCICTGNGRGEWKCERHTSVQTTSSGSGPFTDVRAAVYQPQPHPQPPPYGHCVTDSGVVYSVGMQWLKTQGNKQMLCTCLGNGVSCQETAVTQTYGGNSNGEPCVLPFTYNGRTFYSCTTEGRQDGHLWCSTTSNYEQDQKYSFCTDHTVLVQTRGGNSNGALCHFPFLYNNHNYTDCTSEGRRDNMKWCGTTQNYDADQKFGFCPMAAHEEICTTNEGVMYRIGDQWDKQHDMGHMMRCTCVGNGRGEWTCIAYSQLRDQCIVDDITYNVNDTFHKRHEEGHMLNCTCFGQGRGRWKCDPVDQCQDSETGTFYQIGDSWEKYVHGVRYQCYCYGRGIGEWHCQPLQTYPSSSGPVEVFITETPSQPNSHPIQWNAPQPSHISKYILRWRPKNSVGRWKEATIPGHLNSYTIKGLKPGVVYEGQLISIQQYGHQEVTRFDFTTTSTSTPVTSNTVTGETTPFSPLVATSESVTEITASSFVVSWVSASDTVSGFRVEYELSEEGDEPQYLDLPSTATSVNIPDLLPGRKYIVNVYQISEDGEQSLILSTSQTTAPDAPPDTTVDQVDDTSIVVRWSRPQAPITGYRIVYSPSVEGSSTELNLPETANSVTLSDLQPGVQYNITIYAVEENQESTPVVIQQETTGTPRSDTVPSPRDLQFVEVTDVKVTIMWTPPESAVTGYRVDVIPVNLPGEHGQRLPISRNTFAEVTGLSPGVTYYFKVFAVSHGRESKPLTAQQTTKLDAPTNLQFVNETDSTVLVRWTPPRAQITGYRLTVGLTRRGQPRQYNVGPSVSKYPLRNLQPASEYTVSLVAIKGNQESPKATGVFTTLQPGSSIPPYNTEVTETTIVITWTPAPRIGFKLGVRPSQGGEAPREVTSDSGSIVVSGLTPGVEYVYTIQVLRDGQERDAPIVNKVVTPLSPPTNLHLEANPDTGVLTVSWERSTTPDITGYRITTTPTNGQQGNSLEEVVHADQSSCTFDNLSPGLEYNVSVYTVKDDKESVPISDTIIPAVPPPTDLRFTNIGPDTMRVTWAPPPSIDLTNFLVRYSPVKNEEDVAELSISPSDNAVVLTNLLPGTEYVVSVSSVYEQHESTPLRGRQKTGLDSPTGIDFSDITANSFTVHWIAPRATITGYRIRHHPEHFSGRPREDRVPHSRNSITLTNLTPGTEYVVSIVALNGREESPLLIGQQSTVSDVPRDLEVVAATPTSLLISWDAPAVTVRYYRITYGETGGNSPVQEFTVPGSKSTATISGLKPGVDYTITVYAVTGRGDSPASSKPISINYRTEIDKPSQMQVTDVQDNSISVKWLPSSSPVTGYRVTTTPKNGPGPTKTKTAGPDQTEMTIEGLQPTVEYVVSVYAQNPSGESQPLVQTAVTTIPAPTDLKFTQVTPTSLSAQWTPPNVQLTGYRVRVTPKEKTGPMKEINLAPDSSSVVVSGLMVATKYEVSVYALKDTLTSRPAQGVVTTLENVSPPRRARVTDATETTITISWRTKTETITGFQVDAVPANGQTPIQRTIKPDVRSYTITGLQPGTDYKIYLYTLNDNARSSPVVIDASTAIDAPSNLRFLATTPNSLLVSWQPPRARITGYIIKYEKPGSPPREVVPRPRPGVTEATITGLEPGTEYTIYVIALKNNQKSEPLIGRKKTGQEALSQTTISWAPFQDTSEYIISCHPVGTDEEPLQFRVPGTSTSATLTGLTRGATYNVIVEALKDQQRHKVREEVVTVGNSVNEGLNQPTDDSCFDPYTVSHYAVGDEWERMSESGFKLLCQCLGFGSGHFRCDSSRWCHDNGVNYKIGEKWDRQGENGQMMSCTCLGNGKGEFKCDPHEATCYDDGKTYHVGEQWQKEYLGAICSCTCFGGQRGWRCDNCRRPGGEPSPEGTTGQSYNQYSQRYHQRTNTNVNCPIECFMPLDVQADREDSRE

A word on the Kd: it is the concentration at which binding is half-saturated. In the case of MBP-OmpL1 (natural protein), the Kd is 870 nM.
